“And” between values parts separate entries of the source, which are not always exact repeats. Identical values can stand only once.

Assay [1] deals with T1, calmodulin 2 (CaM2), purified recombinant protein (M. truncatula). In words: BLI; 20 mM CaCl2. On the technique in general: Biolayer interferometry detects binding as a change in optical thickness at a sensor tip.
Assay [2] has as its target T1, calmodulin 2 (CaM2), purified …. Briefly: BLI; 20 mM CaCl2. This is another data set of the same source.
For assay [3] the target is unchanged. Briefly: ITC; 5 mM CaCl2. In general terms: In ITC the heat of successive injections is recorded.

B1: His6-MBP:CtermCNGC15c (domain or fragment)
chain: LIGNMQTYLQSITVRLEEWRVKRTDTEQWMHHRQLPPELRESIRKYNQYKWVATRGVEEEDLLKGLPLDLRREIKRHLCLELVRGVPLFDQMDERMLDAICERLKPALCTEGTYLVREGDPVNEMLFIIRGHLDSYTTNGGRDGFFNSCRIGPGDFCGEELLTWALDPRPSVILPSSTRTVKAFSEVEAFALIAEDLKFVASQFRRLHSKQLRHKFRFYSHQWRTWAACFIQAAWRRHKKRKEAAELRAKENLVAASEAENEIAKKYGKGFVVYGTRVARSTRKGVNMHSGTNSGVVSSLQKPTEPDFSDE
Take B1: the koff in assay [1] came out at 0.077 s⁻¹. Moreover, the Kd in assay [2] turned out to be 14.6 µM.
With AACFIQAAWRRHKKRKEA [CNGC15c-IQ peptide], in assay [3], the dissociation constant Kd was 0.644 µM and 0.64 µM.

B2: His6-MBP:CtermCNGC15b (domain or fragment)
chain: GNMQTYLQSTTVRLEEWRVKRTDTEQWMHHRQLPQELRQSVRKYDQYKWIATRGVDEESLLRGLPLDLRRDIKRHLCLELVRRVPLFDAMDERMLDAICERLKPALCTENTYLVREGDPVNEMLFIIRGNLDSYTTDGGRTGFFNSCRIGPGDFCGEELLTWALDPRPTMVIPSSTRTVKAISEVEAFALIAEDLKFVASQFRRLHSKQLRNKLRFHSHQWRTWAACFIQVAWRRTIQEKKGSC
As to B2, the koff in assay [1] was found to be 0.43 s⁻¹. Besides, the Kd in assay [2] came out at 59 µM.

B3: His6-MBP:CtermCNGC15a (domain or fragment)
chain: GNMQTYLQSTTIRLEEWRIRRTDTERWMHHRQLPHYLKENVRRHDQFRWVATRGVDEEAILRDLPVDLRRDIKRHLCLNLVRQVPLFDQMDDRMLDAICERLKPTLCTPGTCIVREGDPVDEMLFIVRGRLDSCTTNGGRTGFFNTCRIGSGDFCGEELLPWALDPRPTAVLPSSTRTVRAITEVEAFALIAEDLKFVAAQFRRLHSKQLRQTFRFYSHQWRTWAACFIQAAWFRYKRMKETNEVKEKENLMMMSNVKYYGNDDSQYFSAPLQVPKGSSYSMYSGKLVGSLRRGRSMRYGSELDMLGTLRKPIEPDFNDDGD
B3: the off-rate (koff) in assay [1] came out at 0.77 s⁻¹. For the same molecule, the equilibrium dissociation constant (Kd) in assay [2] is 526 µM.
Consider AACFIQVAWRRTIQEKKG [CNGC15b-IQ peptide], for which the Kd in assay [3] stood at 1.39 µM.

Usually koff stands for the rate constant with which the complex falls apart. A word on the Kd: it is the equilibrium constant for the complex coming apart.

The record behind these values is PMC9060481 (2022).
